# Results taken from patent US20180016324A1 (Regeneron, published 2018).
# B1: H4H25708N (antibody, V domains shown)
# VH: EVQLLESGGDLVQPGGSLRLSCAASGFTFSSYAMSWVRQAPGKGLEWVSAISVSGDSTYYADSVKGRFTISRDNSKNTLYLQMNSLRAEDTAVYYCAKDRGYTWNYYYYGMDVWGQGTTVTVSS
# VL: not shown
# B2: H4H25566P (antibody, V domains shown)
# VH: QVQLQESGPGLVKPSQTLSLTCTVSGGSISSGGYYWSWIRQHPGKGLEWIGYIYYSGSTYYNPSLKSRITISIDTSKNQFSLKLTSVTAADTAVYYCARGQQLLSFDYWGQGTLVTVSS
# VL: DIQMTQSPSSVSASVGDRVTITCRASQGISRWLAWYQLKPGKPPTPLIYAASSLQSGAPSRFSGRGSGTDFTLTISSLQPEDFATYYCQQANSFPYTFGQGTKLEIK
# B3: H4H25710N (antibody, V domains shown)
# VH: EVQLLESGGGLVQPGGSLRLSCAASGFTVSNNYMSWVRQAPGKGLEWVSVIYSGGRTNYGDSVKGRFTISRDNSKNTLYLQMNSLRAEDTAVYYCARENYDFWSGDPYGWDVWGQGTTVTVSS
# VL: DIQMTQSPSSLSASVGDRVTITCRASQDISNYLAWFQQKPGKAPKSLIYGASSLQRGVPSKFRGSGSGTDFTLTISSLQPEDFASYYCQQYNSYPYTFGQGTKLEIK
# B4: H2aM25709N (antibody, V domains shown)
# VH: EVQLVESGGGLVQPGGSLRLSCAASGFTVSSNYMSWVRQAPGKGLEWVSVIYSGGRTNYGDSVKGRFTISRDNSKNTLYLQMNSLRAEDTAVYYCARENYDFWSGDPYGWDVWGQGTTVTVSS
# VL: DIQMTQSPSSLSASVGDRVTITCRASQDISNYLAWFQQKPGKAPKSLIYGASSLQRGVPSKFSGSGSGTDFTLTISSLQPEDFATYYCQQYNSYPYTFGQGTKLEIK
# B5: H2aM25711N (antibody, V domains shown)
# VH: EVQLVESGGGLVQPGGSLRLSCAASGFTVSSNYMSWVRQAPGKGLEWVSVIYSGGRTNYGDSVKGRFTISRDNSKNTLYLQMNSLRAEDTAVYYCARENYDFWSGDPYGWDVWGQGTTVTVSS
# VL: DIQMTQSPSSLSASVGDRVTITCRASQDISNYLAWFQQKPGKAPKSLIYGASSLQRGVPSKFSGSGSGTDFTLTISSLQPEDFATYYCQQYNSYPYTFGQGTKLEIK
# B6: H4H25626P (antibody, V domains shown)
# VH: QVQLVESGGGVVQPGRSLRLSCAASGFTFSSYGMHWVRQAPGKGLEWVALIWYDGSDKHYVDSMKGRFTISRDNSKNTLYLQMNSLRADDTAVYYCARQAYYFYYGMDVWGQGTTVTVSS
# VL: not shown
# B7: H4H25630P (antibody, V domains shown)
# VH: QVQLVQSGAEVKRPGASVKVSCKASDYTFTDYGISWVRQAPGQGLEWMGWFNTYNGNTNYAQKFQGRITMTTDTSTSTAYMELRSLRSDDTAIYYCARDWGLHYFENWGQGTLVTVSS
# VL: EIVLTQSPGTLSLSPGERATLSCRASQSVRNSYLAWYQQKPGQAPRLLIYGASSRDTGIPDRFSGSGSGTDFTLTISRLEPEDFAVYYCQQYGRSPWTFGQGTKVEIK
# B8: H4H25587P (antibody, V domains shown)
# VH: EVQLVESGGGLVQPGRSLTLSCAASGFTFDDYVMHWVRQAPGKGLEWVSGISWNSDTIDYADSVKGRFTISRDNAKNSLYLQMNSLRAEDTALYYCAKDRRSWYGGYFDYWGQGTLVTVSS
# VL: DIQMTQSPSSLSASVGDRVTITCRASQGISSYLAWYQQKPGKVPKLLIYAASTLQSGVPSRFSGSGSGTDFSLTISSLQPEDVATYYCQKYNSAPLTFGGGTKVEIK
# B9: H4H25591P (antibody, V domains shown)
# VH: QVQLVESGGGVVQPGRSLRLSCAASGFTFSYSGMHWVRQAPGKGLEWVAVISYDGINKYYADSVKGRFTISRDNSKNTLYLQMNSLRPEDTAVYYCAKDRGGRFDPWGQGTLVTVSS
# VL: DIQMTQSPSSLSASVGDRVTITCRASQGISNYLAWYQQKPGKVPNLLIYGASTLHSGVPSRFSGSGSGTDFTLTISSLQPADVATYYCQKYNSAPLTFGGGTKVEIK
# B10: H4H25633P (antibody, V domains shown)
# VH: EVQLVESGGGLVQPGRSLRLSCAASGFTFDDYAIHWVRQAPGKGLEWVSGISWNSGYLGYADSVKGRFTISRDNAKNSLYLQMNSLRAEDTAFYYCAKDVAWGSVRHVFEIWGQGTMVTVSS
# VL: EIVLTQSPGTLSLSPGERATLSCRASQTITGNQLAWYQQKPGQAPRLLIYFTSSRATGIPDRFSGSGSGTDFSLTISRLEPEDFAVYFCQQFGYSPWTFGQGTKVEIK
# How the values were obtained:
# [1] = target: T1, ZIKV (prM80E) with a C-terminal myc-myc-hexahistidine tag (Zika virus, UniProt A0A024B7W1 104-694); test: SPR, mAb captured, 37C
# T1 construct: also called ZIKV (prM80E)-mmH; ZIKV-mmH
# [2] = target: T1, ZIKV (prM80E) with a C-terminal …; test: SPR, mAb captured, 37C, pH 5.0 chase
# [3] = target: T2, ZIKV prM/E polyprotein on virus-like particles (VLPs) from HEK293T/17 cells (Zika virus, UniProt A0A024B7W1 123-795); test: MSD ECL, VLPs on plate
# T2 construct: also called ZIKV prM/E VLPs; Zika prM/E VLPs
# [4] = target: T1, ZIKV (prM80E) with a C-terminal …; test: SPR, mAb captured, 37C, pH 5.5 chase
# [5] = target: T1, ZIKV (prM80E) with a C-terminal …; test: SPR, mAb captured, 37C; remark: listed apart in the source
# [6] = target: T1, ZIKV (prM80E) with a C-terminal …; test: SPR, mAb captured, 37C; remark: listed apart in the source
# [7] = target: ZIKV envelope glycoprotein (E) of strain MR766 (Uganda 1947) (Zika virus, UniProt Q32ZE1 291-790); test: cell-based or functional assay
# [8] = target: T1, ZIKV (prM80E) with a C-terminal …; test: SPR, mAb captured, 37C, pH 7.4
# [9] = target: T1, ZIKV (prM80E) with a C-terminal …; test: SPR, mAb captured, 25C
# [10] = target: T1, ZIKV (prM80E) with a C-terminal …; test: SPR, mAb captured, 37C, pH 6.0 chase
# [11] = target: ZIKV envelope glycoprotein (E) of strain FLR (Colombia 2015) (Zika virus); test: cell-based or functional assay
# [12] = target: ZIKV envelope glycoprotein (E) of strain PRVABC59 (Puerto Rico 2015) (Zika virus); test: cell-based or functional assay
binder,measurement,setting,value
B1,t½ pH 7.4/t½ pH 6.0,[1],0.6
same,koff,[2],0.00129 s⁻¹
same,t½,[2],8.9 min
same,EC50,[3],133000 pM
same,koff,[4],0.00157 s⁻¹
same,t½,[4],7.37 min
same,Kd,[5],2970 pM
same,koff,[5],0.00232 s⁻¹
same,kon,[5],781000 M⁻¹ s⁻¹
same,t½,[5],5 min
same,t½ pH 7.4/t½ pH 5.0,[6],0.5
same,t½ pH 7.4/t½ pH 5.5,[6],0.6
same,"neutralization IC50, Vero cells",[7],349 pM
same,koff,[8],0.0026 s⁻¹
same,t½,[8],4.45 min
same,Kd,[9],1210 pM
same,koff,[9],0.000504 s⁻¹
same,kon,[9],417000 M⁻¹ s⁻¹
same,t½,[9],22.9 min
same,koff,[10],0.00144 s⁻¹
same,t½,[10],8.02 min
B2,t½ pH 7.4/t½ pH 6.0,[1],5.5
same,koff,[2],0.368 s⁻¹
same,t½,[2],0.03 min
same,EC50,[3],820 pM
same,koff,[4],0.392 s⁻¹
same,t½,[4],0.03 min
same,Kd,[5],52500 pM
same,koff,[5],0.036 s⁻¹
same,kon,[5],687000 M⁻¹ s⁻¹
same,t½,[5],0.3 min
same,t½ pH 7.4/t½ pH 5.0,[6],6.8
same,t½ pH 7.4/t½ pH 5.5,[6],7.2
same,"neutralization IC50, Vero cells",[11],1550 pM
same,koff,[8],0.0542 s⁻¹
same,t½,[8],0.21 min
same,Kd,[9],27700 pM
same,koff,[9],0.0163 s⁻¹
same,kon,[9],590000 M⁻¹ s⁻¹
same,t½,[9],0.7 min
same,koff,[10],0.299 s⁻¹
same,t½,[10],0.04 min
B3,t½ pH 7.4/t½ pH 6.0,[1],24
same,koff,[2],0.339 s⁻¹
same,t½,[2],0.03 min
same,EC50,[3],542 pM
same,koff,[4],0.181 s⁻¹
same,t½,[4],0.06 min
same,Kd,[5],12400 pM
same,koff,[5],0.0064 s⁻¹
same,kon,[5],519000 M⁻¹ s⁻¹
same,t½,[5],1.8 min
same,t½ pH 7.4/t½ pH 5.0,[6],62.6
same,t½ pH 7.4/t½ pH 5.5,[6],33.4
same,"neutralization IC50, Vero cells",[12],1240 pM
same,"neutralization IC50, Vero cells",[7],47.1 pM
same,"neutralization IC50, Vero cells",[11],1060 pM
same,koff,[8],0.00541 s⁻¹
same,t½,[8],2.14 min
same,Kd,[9],6990 pM
same,koff,[9],0.00209 s⁻¹
same,kon,[9],299000 M⁻¹ s⁻¹
same,t½,[9],5.5 min
same,koff,[10],0.13 s⁻¹
same,t½,[10],0.09 min
B4,EC50,[3],362 pM
B5,EC50,[3],468 pM
B6,EC50,[3],1590 pM
same,Kd,[5],6180 pM
same,koff,[5],0.00187 s⁻¹
same,kon,[5],303000 M⁻¹ s⁻¹
same,t½,[5],6.2 min
same,"neutralization IC50, Vero cells",[12],1170 pM
same,"neutralization IC50, Vero cells",[7],159 pM
same,"neutralization IC50, Vero cells",[11],1090 pM
same,Kd,[9],6170 pM
same,koff,[9],0.000905 s⁻¹
same,kon,[9],147000 M⁻¹ s⁻¹
same,t½,[9],12.8 min
B7,EC50,[3],217 pM
same,Kd,[5],1160 pM
same,koff,[5],0.00229 s⁻¹
same,kon,[5],1.98e+06 M⁻¹ s⁻¹
same,t½,[5],5.1 min
same,"neutralization IC50, Vero cells",[12],539 pM
same,"neutralization IC50, Vero cells",[7],147 pM
same,"neutralization IC50, Vero cells",[11],283 pM
same,Kd,[9],210 pM
same,koff,[9],0.00035 s⁻¹
same,kon,[9],1.67e+06 M⁻¹ s⁻¹
same,t½,[9],33 min
B8,t½ pH 7.4/t½ pH 6.0,[1],0.8
same,koff,[2],0.0177 s⁻¹
same,t½,[2],0.7 min
same,EC50,[3],145 pM
same,koff,[4],0.0174 s⁻¹
same,t½,[4],0.66 min
same,Kd,[5],13200 pM
same,koff,[5],0.0145 s⁻¹
same,kon,[5],1.1e+06 M⁻¹ s⁻¹
same,t½,[5],0.8 min
same,t½ pH 7.4/t½ pH 5.0,[6],1
same,t½ pH 7.4/t½ pH 5.5,[6],1
same,"neutralization IC50, Vero cells",[12],321 pM
same,"neutralization IC50, Vero cells",[7],150 pM
same,"neutralization IC50, Vero cells",[11],955 pM
same,koff,[8],0.018 s⁻¹
same,t½,[8],0.64 min
same,Kd,[9],5130 pM
same,koff,[9],0.00422 s⁻¹
same,kon,[9],822000 M⁻¹ s⁻¹
same,t½,[9],2.7 min
same,koff,[10],0.0151 s⁻¹
same,t½,[10],0.77 min
B9,t½ pH 7.4/t½ pH 6.0,[1],2.2
same,koff,[2],0.0148 s⁻¹
same,t½,[2],0.8 min
same,EC50,[3],102 pM
same,koff,[4],0.0184 s⁻¹
same,t½,[4],0.63 min
same,Kd,[5],8370 pM
same,koff,[5],0.00682 s⁻¹
same,kon,[5],816000 M⁻¹ s⁻¹
same,t½,[5],1.7 min
same,t½ pH 7.4/t½ pH 5.0,[6],2.4
same,t½ pH 7.4/t½ pH 5.5,[6],2.9
same,"neutralization IC50, Vero cells",[12],254 pM
same,"neutralization IC50, Vero cells",[7],34.3 pM
same,"neutralization IC50, Vero cells",[11],330 pM
same,koff,[8],0.0063 s⁻¹
same,t½,[8],1.83 min
same,Kd,[9],4900 pM
same,koff,[9],0.00318 s⁻¹
same,kon,[9],649000 M⁻¹ s⁻¹
same,t½,[9],3.6 min
same,koff,[10],0.0136 s⁻¹
same,t½,[10],0.85 min
B10,EC50,[3],400 pM
same,Kd,[5],7390 pM
same,koff,[5],0.00501 s⁻¹
same,kon,[5],678000 M⁻¹ s⁻¹
same,t½,[5],2.3 min
same,"neutralization IC50, Vero cells",[12],652 pM
same,"neutralization IC50, Vero cells",[7],102 pM
same,"neutralization IC50, Vero cells",[11],440 pM
same,Kd,[9],1950 pM
same,koff,[9],0.000802 s⁻¹
same,kon,[9],411000 M⁻¹ s⁻¹
same,t½,[9],14.4 min
